One experiment deals with CD3 on T cells (Homo sapiens (endogenous, Jurkat cells …, UniProt P07766)). As to the kind of experiment: flow cytometry on cells. On the technique in general: Flow cytometry measures light scatter and fluorescence of single cells or particles in a stream.
The target in experiment [1] is recombinant human CD138 protein (Homo sapiens (Human)., UniProt P18827, biotin (in the bio-layer interferometry experiment only)). Kind of experiment: BLI.
Sequence of recombinant human CD138 protein (P18827 23-254): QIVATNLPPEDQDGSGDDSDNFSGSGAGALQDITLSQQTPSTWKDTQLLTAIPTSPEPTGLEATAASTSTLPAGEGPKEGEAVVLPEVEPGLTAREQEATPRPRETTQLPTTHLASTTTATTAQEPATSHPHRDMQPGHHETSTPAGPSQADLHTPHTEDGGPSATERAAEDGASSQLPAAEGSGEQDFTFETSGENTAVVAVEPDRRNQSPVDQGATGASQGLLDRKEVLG

Sequence of CD3 on T cells (Homo sapiens (P07766 23-207): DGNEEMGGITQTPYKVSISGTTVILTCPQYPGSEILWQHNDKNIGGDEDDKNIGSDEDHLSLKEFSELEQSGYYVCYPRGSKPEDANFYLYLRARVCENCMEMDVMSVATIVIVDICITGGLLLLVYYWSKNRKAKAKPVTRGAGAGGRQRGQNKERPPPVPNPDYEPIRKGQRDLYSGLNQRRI

B1: aCD138-ScFv-hIgFc (scFv, V domains shown)
VH: QVQLQQSGSELMMPGASVKISCKATGYTFSNYWIEWVKQRPGHGLEWIGEILPGTGRTIYNEKFKGKATFTADISSNTVQMQLSSLTSEDSAVYYCARRDYYGNFYYAMDYWGQGTSVTVSS
VL: DIQMTQSTSSLSASLGDRVTISCSASQGINNYLNWYQQKPDGTVELLIYYTSTLQSGVPSRFSGSGSGTDYSLTISNLEPEDIGTYYCQQYSKLPRTFGGGTKLEIK
As to B1, the binding result with CD3 on T cells is listed as “no binding (tested: 10 μg/mL)”. In experiment [1], the Kd was 13.5 nM.

Usually Kd stands for the equilibrium constant for the complex coming apart.

The record behind these values is publication PMC4452151 (Cancer Science, 2015).
